Results as given in patent US20160194380A1 (Merck KGaA, published 2016).
Where no end group is shown, it is not given here.

Assays:
[1] = biological target: T1, Bovine pancreatic trypsin (bovine, UniProt P00760 24-246); experiment: protease inhibition assay, substrate-independent Ki from Morrison fit
T1 construct: Bought
Protocol: (§1) D: Biol. Crystallogr., 69(2013), 114-120; Reinwarth, ChemBioChem, 14(2013), 137-146; Boy, Mol. Imaging Biol. 12(2010), 377-385] Measurements were carried out in triplicates using a Tecan Genios ELISA reader. The normalized residual proteolytic activity (v/v0) of proteases was determined using substrates Boc-QAR-pNA (250 μM), Boc-QAR-AMC (250 μM) or Spectrozym tPA (250 μM). Product formation was monitored after preincubation (30 min, RT) with inhibitor at different concentrations over 30 min by measuring the absorbance at 405 nm or the fluorescence emission (ex. 360 nm, em. 465 nm), respectively. Selectivity data were carried out in duplicates with final protease concentrations of uPA and thrombin of 5 nM. In case of hepsin 50 mM Tris/HCl pH 9.0 was used as assay buffer. Apparent inhibition constants (Kᵢ^app) were calculated by fitting the Morrison equation (1) for tight-binding inhibitors to the relative reaction velocity using non-linear regression (Marquardt-Levenberg algorithm, SigmaPlot 11).
(§2) Substrate-independent inhibition constants Ki were calculated from Ki^app and Km of the enzyme according to (2). The Michaelis-Menten constant Km for the substrates and proteases were determined previously.

Human matriptase-1 = biological target: T2, Human matriptase-1 (human, UniProt Q9Y5Y6 596-855, limits assumed); experiment: as above
T2 construct: also called MTSP1
T2 sequence (looked up): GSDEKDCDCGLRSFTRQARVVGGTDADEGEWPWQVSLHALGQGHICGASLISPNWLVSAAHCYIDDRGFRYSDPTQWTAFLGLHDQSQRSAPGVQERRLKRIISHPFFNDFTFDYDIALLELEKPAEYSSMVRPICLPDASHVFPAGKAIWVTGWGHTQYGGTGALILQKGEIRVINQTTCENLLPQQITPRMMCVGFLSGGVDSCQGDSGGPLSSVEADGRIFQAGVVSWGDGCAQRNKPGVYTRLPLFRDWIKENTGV
Protocol: as §1, §2

T1 sequence (P00760 24-246): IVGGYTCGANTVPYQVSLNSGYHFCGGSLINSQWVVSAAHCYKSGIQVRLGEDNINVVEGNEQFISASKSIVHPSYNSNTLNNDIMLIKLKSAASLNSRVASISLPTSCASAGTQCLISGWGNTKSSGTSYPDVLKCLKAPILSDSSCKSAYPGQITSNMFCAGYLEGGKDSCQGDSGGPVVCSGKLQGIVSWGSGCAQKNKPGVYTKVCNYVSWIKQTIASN

Binder	Ki [1] [nM]	Ki (Human matriptase-1) [nM]
EDKCSPSGAICSGFGPPEQCCSGACVPHPILRIFVCQ (peptide, UniProt P84781 1-37, looked up, disulfide (positions not given here); also: oxidatively folded, disulfide places not given here, Made by Fmoc-SPPS and oxidative folding; also called 1 (SOTI-III wt); SOTI-III wild type 1) [SOTI-III wt (inhibitor 1)]	60.6	–
GGVCPKILKKCRRDSDCPGACICRGNGYCG (peptide, UniProt P82409 5-34, looked up, disulfide (positions not given here); also: oxidatively folded, disulfide places not given here, Open-chain (acyclic) form, chemically synthesised and oxidatively folded; also called 3 (MCoTI-II wt); MCoTI-wt 3) [MCoTI-II wt (inhibitor 3)]	2.37	80.7
